From patent US6559124B1, “Use of prosaposin and peptides obtained therefrom for treatment of neural degeneration” (Myelos Corporation, priority 1993, dated 2003) come the findings set out here.

Several values for one entry are separate records, joined by “and”; a condition that tells them apart may be missing. Equal values may be shown once. Where no end group is shown, it is not given here.

The test system of data set [1] is NS20Y neuroblastoma cells. Briefly: Neurite outgrowth of NS20Y neuroblastoma cells. The data set is classed as cell-based. The following applies: for % Neurites after 24 hours: peptide added at 5 μg/ml, None = 18%. On the procedure: NS20Y neuroblastoma cells were grown in Dulbecco's Modified Eagle Medium (DMEM) containing 10% fetal calf serum (FCS) and 1 mM sodium pyruvate. Cells were removed with trypsin and plated in 30 mm petri dishes onto glass coverslips. After 20-24 hours the medium was replaced with DMEM containing 0.5% fetal calf serum plus effector proteins. Cells were cultured for another 24 hours, washed with phosphate buffered saline (PBS) and fixed with Bouin's solution (saturated aqueous picric acid/formalin/acetic acid 15:5:1) for 30 minutes. Fixative was removed with PBS and neurite outgrowth was scored under a phase contrast microscope. […] At least 200 cells were scored in different portions of each dish to determine the percentage of neurite bearing cells and assays were performed in duplicate.

Data set [2] relates to NS20Y proteins. Description: Incorporation of 32P into NS20Y proteins. Type of data set: cell-based. The following applies: NS20Y cells; effector proteins 0.5-1.0 μg/ml, 10-15 minutes; versus controls or saposins A, B or D. How it is done:
NS20Y cells were incubated in phosphate-free Hanks' balanced salt solution containing 2.5 μg/ml actinomycin D and 80-100 μCi/ml carrier-free [^32P]-orthophosphate (New England Nuclear) and effector proteins (0.5-1.0 μg/ml) and incubated for 10-15 minutes at room temperature. Cells were solubilized in SDS-PAGE sample buffer, analyzed by SDS-PAGE and autoradiographed.

Details of data set [3]: species or system rats. Conditions: rat, in vivo. How it is done: An 18-mer peptide consisting of amino acids 12-29 of saposin C with a tyrosine substituted for valine at position 12 was chemically synthesized on an Applied Biosystems Model 430 peptide synthesizer. The peptide was then radioiodinated by the lactoperoxidase method and 20×10^6 cpm were injected into the auricles of rats. The animals were sacrificed after one hour and 24 hours and the hearts were perfused with isotonic saline in order to remove the blood from the brain. The brain was then counted in a gamma counter in order to determine the percentage of peptide uptake. In addition, in the 24 hour experiment the brain was homogenized and separated into a capillary rich fraction (pellet) and a parenchymal brain fraction (supernatant) after dextran centrifugation (Triguero et al., (1990) J. Neurochem., 54: 1882-1888). This method allows for the discrimination between radiolabelled peptide within blood vessels and that within the brain. In the 24 hour experiment, 0.017% of the injected peptide was detected in whole brain, 75% of the label was in the parenchymal fraction and 25% was in the capillary fraction. At 1 hour 0.03% of the injected dose was present in whole brain.

Data set [4] has as its system PC12M pheochromocytoma cells. Briefly: Neurite outgrowth from NGF-responsive PC12M cells. The data set is classed as cell-based. The following applies: high concentrations (2 mg/ml). The source says:
Since nerve growth factor (NGF) acts on a variety of cell types, we wanted to determine whether it was involved in prosaposin-mediated outgrowth in neuroblastoma cells.

Data set [5] deals with mouse cerebellar explants. Description: Neurite outgrowth and myelination in newborn mouse cerebellar explants. Type of data set: cell-based. Conditions: prosaposin 5 μg/ml, saposins 10 μg/ml; for cells with long projections at the periphery of the explant: day 15. How it is done:
Newborn mouse cerebellar explants were prepared according to Satomi (Zool. Sci. 9, 127-137 (1992)). Neurite outgrowth and myelination were observed over 22 days in culture, during the period when the newborn mouse cerebellum normally undergoes neuronal differentiation and myelination begins. Prosaposin (5 μg/ml) and saposins A, B and C (10 μg/ml) were added on the second day after preparation of the explants (three control and three treated explants) and outgrowth of neurites and myelination were assessed under a bright field microscope with a video camera.

With “1-27: synthetic peptide from the human saposin C domain, residues 1-27 (SDVYCEVCEFLVKEVTKLIDNNKTEKE; Saposin-C; UniProt P07602 311-337, looked up, fragment)”, the “% Neurites after 24 hours” value in data set [1] is 46%.
As for “1-40: amino terminal synthetic peptide, residues 1-40 of saposin C (SDVYCEVCEFLVKEVTKLIDNNKTEKEILDAFDKMCSKLP; Saposin-C; UniProt P07602 311-350, looked up, fragment)”, in data set [1], the “neuritogenic activity (in words)” value is reported as “active” and the “% Neurites after 24 hours” value is listed as 42%.
In the case of “13-34: synthetic peptide from the human saposin C domain, residues 13-34 (KEVTKLIDNNKTEKEILDAFDK; Saposin-C; UniProt P07602 323-344, looked up, fragment)”, the “% Neurites after 24 hours” value in data set [1] was 50%.
The same measure, in the same setting: under “21-48: synthetic peptide from the human saposin C domain, residues 21-48 (NNKTEKEILDAFDKMCSKLPKSLSEECQ; Saposin-C; UniProt P07602 331-358, looked up, fragment)” stands 18%.
For “41-82: carboxy terminal synthetic peptide, residues 41-82 of saposin C (KSLSEECQEVVDTYGSSILSILLEEVSPELVCSMLHLCSGTR; Saposin-C; UniProt P07602 351-392, looked up, fragment)”, in data set [1], the “neuritogenic activity (in words)” value was “inactive” and the “% Neurites after 24 hours” value is 17%.
With CEFLVKEVTKLIDNNKTEKEIL [8-29], in data set [1], the “neuritogenic activity (in words)” value was “neuritogenic activity” and the “% Neurites after 24 hours” value was 56%. In addition, the “extent of neurite outgrowth compared with prosaposin or saposin C” value in data set [1] (FIG. 1a, higher concentrations required for activity) is recorded as “greater than with prosaposin or saposin C”. Also, the “phosphorylation of proteins of 148, 100, 80, 68, 50, 38 and 34 kDa (in words)” value in data set [2] is “stimulate phosphorylation”.
On to “NGF: nerve growth factor, a neurotrophin [reference compound]”, for which, in data set [1], the “neuritogenic activity (in words)” value was “no effect on neurite outgrowth”. For the same molecule, the “augmentation of the prosaposin neurite outgrowth response” value in data set [1] (5 μg/ml NGF (FIG. 1b)) is reported as “did not augment the prosaposin response”.
On to “iodinated 18-mer: amino acids 12-29 of saposin C with tyrosine substituted for valine at position 12 (SEQ ID NO: 5), radioiodinated (YKEVTKLIDNNKTEKEIL; also: radioiodinated)”, for which, in data set [1], the “neuritogenic activity (in words)” value is recorded as “neuritogenic activity”. For the same molecule, in data set [3], the “crossing of the blood brain barrier (in words)” value is “crosses the blood brain barrier”, the “injected peptide detected in whole brain” value is on record as 0.017%, the “label in the capillary fraction of brain” value was determined as 25% and the “label in the parenchymal fraction of brain” value was 75%.

B1: Prosaposin: 70 kilodalton glycoprotein, precursor of saposins A, B, C and D; human sequence SEQ ID NO:2 (protein)
chain: MYALFLLASLLGAALAGPVLGLKECTRGSAVWCQNVKTASDCGAVKHCLQTVWNKPTVKSLPCDICKDVVTAAGDMLKDNATEEEILVYLEKTCDWLPKPNMSASCKEIVDSYLPVILDIIKGEMSRPGEVCSALNLCESLQKHLAELNHQKQLESNKIPELDMTEVVAPFMANIPLLLYPQDGPRSKPQPKDGDVCQDCIQMVTDIQTAVRTNSTFVQALVEHVKEECDRLGPGMADICKNYISQYSEIAIQMMMHMQPKEICALVGFCDEVKEMPMQTLVPAKVASKNVIPALDLVDPIKKHEVPAKSDVYCEVCEFLVKEVTKLIDNNKTEKEILDAFDKMCSKLPKSLSEECQEVVDTYGSSILSILLEEVSPELVCSMLHLCSGTRLPALTVHVTQPKDGGFCEVCKKLVGTLDRNLEKNSTKQEILAALEKGCSFLPDPYQKQCDQFVAEYEPVLIEILVEVMDPSFVCLKIGACPSAHKPLLGTEKCIWGPSYWCQNTETAAQCNAVEHCKRHVWN
On to B1, for which, in data set [4], the “stimulation of neurite outgrowth from PC12M cells” value is reported as “failed to stimulate neurite outgrowth”. For the same molecule, in data set [5] (day 8), the “appearance of explant cultures on the eighth day” value is “thinner and more spread out than control cultures”. Also, the “cells with long projections at the periphery of the explant” value (from here on “cells with long projections”) in data set [5] is “many cells with long projections”. In addition, the “neuritogenic activity (in words)” value in data set [1] is listed as “promoted reversible neurite outgrowth”. In addition, in data set [1] (dose-response curve FIG. 1a), the “lowest concentration for activity (neurite outgrowth)” value is 1.4×10^−11 M and 10 ng/ml. For the same molecule, the “time at which retraction of neurite outgrowth was complete after removal” value in data set [1] (prosaposin removed) came out at 36 h. Also, the “phosphorylation of proteins of 148, 100, 80, 68, 50, 38 and 34 kDa (in words)” value in data set [2] was “stimulate phosphorylation”.

B2: Saposin A: one of four saposins generated from prosaposin; inactive in neurite outgrowth (protein, UniProt P07602 60-142, looked up)
Saposin-A: SLPCDICKDVVTAAGDMLKDNATEEEILVYLEKTCDWLPKPNMSASCKEIVDSYLPVILDIIKGEMSRPGEVCSALNLCESLQ
modifications: Saposin-A
On to B2, for which the “cells with long projections” value in data set [5] is “less prominent”. Moreover, in data set [1], the “neuritogenic activity (in words)” value was “inactive” and the “% Neurites after 24 hours” value stood at 20%.

B3: saposin B: one of four saposins generated from prosaposin (protein, UniProt P07602 195-273, looked up)
Saposin-B: GDVCQDCIQMVTDIQTAVRTNSTFVQALVEHVKEECDRLGPGMADICKNYISQYSEIAIQMMMHMQPKEICALVGFCDE
modifications: Saposin-B
notes: one of four saposins generated from prosaposin
Take B3: in data set [5], the “cells with long projections” value is given as “less prominent”.
